Primed or numbered codes have the meaning given here. Where no end group is shown, it is not given here. [ ]: non-standard residue; d: D form. Me3″ = trimethylation (trimethyl-lysine); Me2 = dimethylation (dimethyl-lysine); Lys(Me2) = CN(C)CCCC[C@H](N)C(=O)O
T1: mASH1L PHD domain (residue 2573–2624) D2584E (mouse, UniProt Q99MY8 2573-2624, D2584E)
T1 construct: also called Asp2584 to Glu; source: E. coli BL21 (DE3), purified (MBPTrap, TEV cleavage, Superdex 75)
T1 sequence (looked up): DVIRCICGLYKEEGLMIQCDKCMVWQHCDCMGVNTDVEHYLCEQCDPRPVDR

T2: mASH1L PHD domain (residue 2573–2624) Q2590E (mouse, UniProt Q99MY8 2573-2624, Q2590E)
T2 construct: also called Gln2590 to glutamate; source: E. coli BL21 (DE3), purified (MBPTrap, TEV cleavage, Superdex 75)
T2 sequence (looked up): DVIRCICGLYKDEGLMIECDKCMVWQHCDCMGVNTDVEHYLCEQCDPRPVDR

T3: mASH1L PHD domain (residue 2573–2624) (mouse, UniProt Q99MY8 2573-2624)
T3 chain: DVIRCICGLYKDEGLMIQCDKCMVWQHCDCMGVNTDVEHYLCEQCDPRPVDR


How the values were obtained:
ASH1L PHD finger [1] = target: T4, ASH1L PHD finger (Mus musculus, UniProt Q99MY8); assay: ITC, ASH1L PHD finger with H3 peptides; type: binding, mASH1L; conditions: 1×PBS, 100-μM ZnCl2, pH 7.2; for binding by ITC, in words: 25°C
T4 construct: The mASH1L PHD domain (residue 2573–2624); MBP (cleaved yes); made in house; host or cells: Escherichia coli BL21 (DE3)
Protocol: The bacteria were grown in Luria Broth (LB) media, supplemented with 100-μM ZnCl2 (all PHD constructs). All PHD domains were expressed in Escherichia coli BL21 (DE3) cells and induced overnight with 0.5-mM isopropyl-β-D-1-thiogalactopyranoside (IPTG) at 22°C. In addition, the cells were harvested by centrifugation at 4,000 g. The harvested cells with MBP-tagged PHD were resuspended in buffer containing 25-mM Tris, pH 7.2, 1-M NaCl, 20-mM β-mercaptoethanol, 100-μM ZnCl2, and the Complete EDTA-free Protease Inhibitor (Roche, Mannheim, Germany). Following lysis in a microfluidizer (MFIC), cell debris was removed by centrifugation at 12,000 g for 1 h and the supernatant was loaded on a 5-ml MBPTrap HP column (GE Healthcare). The binding protein was eluted with buffer containing 25-mM Tris, pH 7.2, 500-mM NaCl, 20-mM β-mercaptoethanol, 20-mM maltose, and 100-μM ZnCl2. After TEV cleavage, the PHD domain was supplemented with 20-mM DTT and further purified using a Superdex 75 column (GE Healthcare, Uppsala, Sweden) in a final buffer containing 1×PBS, pH 7.2, 100- μM ZnCl2. […] The PHD protein was concentrated with a filter tube (Millipore, Co. Cork, Ireland) and measured by UV absorbance at 280 nm.
ITC assays were carried out on the MicroCal iTC200 System (Malvern) at 25°C while stirring at 750 rpm in the ITC buffer of pH 7.2, consisting of 1×PBS, 100-μM ZnCl2. […] The PHD or tandem Bromo-PHD protein sample of 100 µM was placed in the cell and titrated with 3 mM of a different peptide solution in the ITC buffer using a set of 31 injections of 1.2 μl, following a single initial injection of 0.2 μl. In the ITC measurements of PHD mutant samples, the H3 (1–15) peptides were diluted to the final concentrations of 1.5 mM, titrated with a single initial injection of 0.4 μl and followed with a set of 19 injections of 2 μl. Cumulative enthalpy exchange plots were derived from the raw thermal changes, using one set of a site-fitting model.

ASH1L PHD finger [2] = target: T4, ASH1L PHD finger; assay: 1H,15N HSQC chemical shift perturbation; type: binding, mASH1L; conditions: protein-to-peptide molar ratio 1:5; 298 K, 800 MHz, 1×PBS, pH 7.2, 100-μM ZnCl2
Source text: The mASH1L PHD domain (residue 2573–2624) was subcloned into a modified pMAL-c5X expression vector (New England Biolabs, Ipswich, MA, US), which contains an MBP tag and a TEV cleavage site. The site-directed mutagenesis of D2573A, I2575A, D2584E, E2585A, M2588A, Q2590E, and W2597A in the PHD domain was generated using the PfuTurbo DNA polymerase (Agilent Technologies) and Dpn I restriction enzyme (New England Biolabs). After the MBP tag was cut by TEV, these proteins were used in ITC and NMR experiments. The His-tagged PHD domain was subcloned into a pGEX-4T1 expression vector. The base vector has a GST tag and was engineered to include a TEV cleavage site before a 5′ 6×His sequence. […]
The bacteria were grown in Luria Broth (LB) media, supplemented with 100-μM ZnCl2 (all PHD constructs). […] The size and purity of the purified protein were monitored by SDS-PAGE. The PHD protein was concentrated with a filter tube (Millipore, Co. Cork, Ireland) and measured by UV absorbance at 280 nm.
The ^1H,^15N HSQC spectra of the ^15N-labeled PHD finger were collected at 298 K on a Bruker 800-MHz NMR spectrometer equipped with the z-gradient triple-resonance cryoprobe. The binding was analyzed through monitoring chemical shift perturbations observed in the two-dimensional ^1H,^15N HSQC spectra of PHD finger upon the addition of H3 (aa 1-15) peptides (H3K4me, H3K4me2, H3K4me3). […]

[3] = target: mASH1L PHD domain (residue 2573–2624) (mouse) (UniProt Q99MY8); assay: NMR titration; 1H,15N HSQC; 100 μM PHD domain titrated with 25 to 2,000 μM peptide; 1×PBS pH 7.2, 100 μM ZnCl2, 298 K; single-site binding model
[4] = target: T5, His-tagged Bromo-PHD tandem domain (residue 2425–2627) of mASH1L (mouse, UniProt Q99MY8 2425-2627); assay: ITC; MicroCal iTC200, 25°C, 1×PBS pH 7.2, 100 μM ZnCl2; 100 µM PHD or tandem Bromo-PHD in the cell, titrated with 3 mM peptide (31 injections of 1.2 μl); one set of sites model; conditions: both partners purified
T5 construct: ASH1L (mASH1L), bromodomain and PHD finger in tandem, residues 2425-2627; pNIC-Bsa4 vector; no cleavage of the His tag is described; also called tandem Bromo-PHD protein; source: E. coli BL21 (DE3), purified (HiTrap IMAC FF, Superdex 75)

[5] = target: T1, mASH1L PHD domain (residue 2573–2624) …; assay: ITC; PHD mutants in the cell; H3 (1–15) peptides at 1.5 mM, 19 injections of 2 μl; 25°C, 1×PBS pH 7.2, 100 μM ZnCl2; one set of sites model; conditions: both partners purified
[6] = target: T2, mASH1L PHD domain (residue 2573–2624) …; assay: as above; conditions: both partners purified
[7] = target: mASH1L PHD domain (residue 2573–2624) D2573A (mouse, UniProt Q99MY8 2573-2624, D2573A); assay: ITC
[8] = target: mASH1L PHD domain (residue 2573–2624) I2575A (mouse, UniProt Q99MY8 2573-2624, I2575A); assay: ITC
[9] = target: mASH1L PHD domain (residue 2573–2624) W2597A (mouse, UniProt Q99MY8 2573-2624, W2597A); assay: ITC
[10] = target: mASH1L PHD domain (residue 2573–2624) E2585A (mouse, UniProt Q99MY8 2573-2624, E2585A); assay: ITC
[11] = target: mASH1L PHD domain (residue 2573–2624) Q2590E (mouse, UniProt Q99MY8 2573-2624, Q2590E); assay: ITC
[12] = target: T3, mASH1L PHD domain (residue 2573–2624); assay: ITC
[13] = target: mASH1L PHD domain (residue 2573–2624) M2588A (mouse, UniProt Q99MY8 2573-2624, M2588A); assay: ITC
[14] = target: mASH1L PHD domain (residue 2573–2624) (mouse) (UniProt Q99MY8); assay: ITC; MicroCal iTC200, 25°C, 1×PBS pH 7.2, 100 μM ZnCl2; 100 µM PHD or tandem Bromo-PHD in the cell, titrated with 3 mM peptide (31 injections of 1.2 μl); one set of sites model
[15] = target: T6, mASH1L PHD domain (residue 2573–2624) (mouse, UniProt Q99MY8 2573-2624); assay: as above; conditions: both partners purified
T6 construct: 15N- or 13C-labelled for the NMR experiments; also called ASH1L PHD finger; source: E. coli BL21 (DE3), purified (MBPTrap, TEV cleavage, Superdex 75)

Molecule	Kd [3] [µM]	Kd [4] [µM]	Kd [5] [µM]	binding result [6]	Kd [7] [µM]	Kd [9] [µM]	Kd [10] [µM]	Kd [11] [µM]	Kd [13] [µM]	Kd [14] [µM]	other results
CC(C)[C@H](NC(=O)CNC(=O)CNC(=O)[C@@H](NC(=O)[C@H](C)NC(=O)[C@@H]1CCCN1C(=O)[C@H](C)N)[C@@H](C)O)C(=O)N[C@@H](CCCCN(C)C)C(=O)N[C@@H](CCCCN)C(=O)N1CCC[C@H]1C(=O)N[C@@H](Cc1c[nH]cn1)C(=O)N[C@@H](CCCNC(=N)N)C(=O)N[C@@H](Cc1ccc(O)cc1)C(=O)N[C@@H](CCCNC(=N)N)C(=O)N1CCC[C@H]1C(=O)O [H3K36me2]	–	–	–	–	–	–	–	–	–	–	binding by ITC, in words (ASH1L PHD finger [1]): weak binding affinity; HSQC chemical shift perturbation (ASH1L PHD finger [2]): binds with methylated H3K4 peptides but not H3K4me0, H3K9me2, or H3K36me2 peptides
C[C@H](NC(=O)[C@@H](NC(=O)[C@H](CCC(N)=O)NC(=O)[C@H](CCCCN)NC(=O)[C@@H](NC(=O)[C@@H](N)CCCNC(=N)N)[C@@H](C)O)[C@@H](C)O)C(=O)N[C@@H](CCCNC(=N)N)C(=O)N[C@@H](CCCCN(C)C)C(=O)N[C@@H](CO)C(=O)N[C@H](C(=O)NCC(=O)NCC(=O)N[C@@H](CCCCN)C(=O)N[C@@H](C)C(=O)N1CCC[C@H]1C(=O)O)[C@@H](C)O [H3K9me2]	–	–	–	–	–	–	–	–	–	–	binding by ITC, in words (ASH1L PHD finger [1]): weak binding affinity; Kd (ASH1L PHD finger [1]; MicroCal iTC200, 25°C, 100 µM protein titrated with 3 mM peptide, H3 (1–15) peptides, H3 (2–16) K9me2, H3 (29–43) K36me2): > 500 µM; HSQC chemical shift perturbation (ASH1L PHD finger [2]): binds with methylated H3K4 peptides but not H3K4me0, H3K9me2, or H3K36me2 peptides
ARTK(Me3″)QTARKSTGGKA (peptide, UniProt P68431 2-16, looked up, histone H3, residues 1-15; also called H3K4me3; source: synthetic peptide (MIMOYOPES, Wuxi, China)) [histone H3 (1–15) peptide, trimethylated on lysine 4]	106	~48	~38	binds	86	> 200	49	33	> 200	64	Kd [8]: 103 µM; Kd [12]: 33 µM
ART[Lys(Me2)]QTARKSTGGKA (also called H3K4me2; H3K4me2 peptide (1–15); source: synthetic peptide (MIMOYOPES, Wuxi, China)) [histone H3 (1–15) peptide, dimethylated on lysine 4]	238	~29	~26	binds	71	> 200	174	35	> 200	39	Kd [8]: > 200 µM
ARTK(Me)QTARKSTGGKA (peptide, UniProt P68431 2-16, looked up, histone H3, residues 1-15; also called H3K4me1; H3K4me; source: synthetic peptide (MIMOYOPES, Wuxi, China)) [histone H3 (1–15) peptide, monomethylated on lysine 4]	181	~64	~54	binds	188	> 200	140	31	> 200	75	Kd [12]: 41 µM
ARTKQTARKSTGGKA (peptide, UniProt P68431 2-16, looked up, histone H3, residues 1-15; also called H3K4; H3K4me0; source: synthetic peptide (MIMOYOPES, Wuxi, China)) [histone H3 (1–15) peptide, unmethylated on lysine 4]	–	> 500	–	–	–	–	–	–	–	> 300	–
RTKQTARK(Me2)STGGKAP (peptide, UniProt P68431 3-17, looked up, histone H3, residues 2-16; also called H3K9me2; source: synthetic peptide (MIMOYOPES, Wuxi, China)) [histone H3 (2–16) peptide with dimethylation on lysine 9]	–	–	–	–	–	–	–	–	–	–	Kd [15]: > 500 µM
APATGGVK(Me2)KPHRYRP [histone H3 (29–43) peptide with dimethylation on lysine 36]	–	–	–	–	–	–	–	–	–	–	Kd [15]: > 500 µM

From article PMC9399681, “Structural insight into ASH1L PHD finger recognizing methylated histone H3K4 and promoting cell growth in prostate cancer” (Frontiers in Oncology, 2022)
